Laboratory results as given in the supplement of paper PMC5998384.

Experiments:
HeLa Kyoto [1] = test: solubility change mitosis vs G1/S (difference of NP-40 vs SDS log2 ratios) (log2 ratio difference); higher = more soluble in mitosis
HeLa Kyoto [2] = test: solubility in G1/S (NP-40 vs SDS abundance) (log2 ratio); higher = more soluble; settings: cell cycle stage: G1/S
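For solubility change mitosis vs G1/S (difference of NP-40 vs SDS log2 ratios) in this document: synchronized HeLa Kyoto cells (double thymidine block for G1/S, nocodazole release for mitosis), protein amounts in NP-40 versus SDS lysates quantified by mass spectrometry, three biological replicates.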
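For solubility in G1/S (NP-40 vs SDS abundance) in this document: HeLa Kyoto cells arrested at G1/S by double thymidine block, proteins quantified by TMT10plex mass spectrometry in mild NP-40 versus SDS extracts, three biological replicates.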

Sequence | solubility change mitosis (log2) (HeLa Kyoto [1]) | solubility in G1/S (log2) (HeLa Kyoto [2])
MLRSTGFFRAIDCPYWSGAPGGPCRRPYCHFRHRGARGSGAPGDGGEAPPAAGLGYDPYNPELPKPPAQRENGTLGLGEEPRPDVLELELVNQAIEAVRSEVELEQRRYRELLETTREHRSAEAPALAPRGPNASPTVGPDEDAFPLAFDYSPGSHGLLSPDAGYQPTPLAAPAEPGSKYSLASLDRGQGRGGGGGGALEYVPKAVSQPRRHSRPVPSGKYVVDNSRPPTDLEYDPLSNYSARHLSRASSRDERAAKRPRGSRGSEPYTPAPKKLCDPFGSCDARFSDSEDEAATVPGNEPTTASTPKARADPEIKATGQPPSKEGLEAEGGGLRETKETAVQCDVGDLQPPPAKPASPAQVQSSQDGGCPKEGKPKKKKTGAPPAPSCKDGAQGKDKTKDKGRGRPVEKPRADKKGPQASSPRRKAERPEGTKKKPSSATPVATSGKGRPDRPARRPSPTSGDSRPAAGRGPPRPLQLPDRKSTKAPSGKLVERKARSLDEGASQDAPKLKKRALSHADLFGDESEDEAAGPGVPSVWPSALPSLSSDSDSDSDSSLGFPEAQGPPKRLKASPPPSPAPSSSSSSSSSTSSAGADVDYSALEKEVDFDSDPMEECLRIFNESTSVKTEDRGRLARQPPKEEKSEEKGLSGLTTLFPGQKRRISHLSKQGQEVEPPRRGPAVPPARPPTAQEVCYLRAQQAQRASASLLQAPARLAEKSPSVHISAPGEKRRIAHIPNPRLAAAPTGAKRTLAASGSQSSNGPEPGGQQLKTRTLSGMASKTTTTIIPKRIAHSPSLQSLKKPIIPKEFGGKVPTVIRQRYLNLFIEECLKFCTSNQEAIEKALNEEKVAYDRSPSKNIYLNVAVNTLKKLRGLAPSAVPGLSKTSGRRVVSHEVVLGGRLAAKTSFSLSRPSSPRVEDLKGAALYSRLREYLLTQDQLKENGYPFPHPERPGGAIIFTAEEKRPKDSSCRTCCRCGTEYLVSSSGRCIRDEECYYHWGRLRRNRVAGGWETQYMCCSAAAGSVGCQVAKQHVQDGRKERLEGFVKTFEKELSGDTHPGIYALDCEMSYTTYGLELTRVTVVDTDVHVVYDTFVKPDNEIVDYNTRFSGVTEADLADTSVTLRDVQAVLLSMFSADTILIGHSLESDLLALKVIHSTVVDTSVLFPHRLGLPYKRSLRNLMADYLRQIIQDNVDGHSSSEDAGACMHLVIWKVREDAKTKR [REXO1] | -0.0256 | -0.201
MDPGWGQRDVGWAALLILFAASLLTVFAWLLQYARGLWLARARGDRGPGPALAGEPAGSLRELGVWRSLLRLRATRAGAAEEPGVRGLLASLFAFKSFRENWQRAWVRALNEQACRNGSSIQIAFEEVPQLPPRASISHVTCVDQSEHTMVLRCQLSAEEVRFPVSVTQQSPAAVSMETYHVTLTLPPTQLEVNLEEIPGEGLLISWAFTDRPDLSLTVLPKLQARERGEEQVELSTIEELIKDAIVSTQPAMMVNLRACSAPGGLVPSEKPPMMPQAQPAIPRPNRLFLRQLRASHLGNELEGTEELCCVAELDNPMQQKWTKPARAGSEVEWTEDLALDLGPQSRELTLKVLRSSSCGDTELLGQATLPVGSPSRPLSRRQLCPLTPGPGKALGPAATMAVELHYEEGSPRNLGTPTSSTPRPSITPTKKIELDRTIMPDGTIVTTVTTVQSRPRIDGKLDSPSRSPSKVEVTEKTTTVLSESSGPSNTSHSSSRDSHLSNGLDPVAETAIRQLTEPSGRVAKKTPTKRSTLIISGVSKVPIAQDELALSLGYAASLEASVQDDAGTSGGPSSPPSDPPAMSPGPLDALSSPTSVQEADETTRSDISERPSVDDIESETGSTGALETRSLKDHKVSFLRSGTKLIFRRRPRQKEAGLSQSHDDLSNATATPSVRKKAGSFSRRLIKRFSFKSKPKANGNPSPQL [C2CD2L] | -0.0722 | -0.0395
MSYRRELEKYRDLDEDEILGALTEEELRTLENELDELDPDNALLPAGLRQKDQTTKAPTGPFKREELLDHLEKQAKEFKDREDLVPYTGEKRGKVWVPKQKPLDPVLESVTLEPELEEALANASDAELCDIAAILGMHTLMSNQQYYQALSSSSIMNKEGLNSVIKPTQYKPVPDEEPNSTDVEETLERIKNNDPKLEEVNLNNIRNIPIPTLKAYAEALKENSYVKKFSIVGTRSNDPVAYALAEMLKENKVLKTLNVESNFISGAGILRLVEALPYNTSLVEMKIDNQSQPLGNKVEMEIVSMLEKNATLLKFGYHFTQQGPRLRASNAMMNNNDLVRKRRLADLTGPIIPKCRSGV [TMOD1] | 0.357 | 0.122
